The record followed here is patent publication US20220378893A1 (INDUSTRY UNIVERSITY COOPERATION FOUNDATION HANYANG …, published 2022).

The chains are these.
B2: neutrophil cytosol factor 1 (p47phox), endogenous in THP-1 cells (other)
chain: MGDTFIRHIALLGFEKRFVPSQHYVYMFLVKWQDLSEKVVYRRFTEIYEFHKTLKEMFPIEAGAINPENRIIPHLPAPKWFDGQRAAENRQGTLTEYCSTLMSLPTKISRCPHLLDFFKVRPDDLKLPTDNQTKKPETYLMPKDGKSTATDITGPIILQTYRAIANYEKTSGSEMALSTGDVVEVVEKSESGWWFCQMKAKRGWIPASFLEPLDSPDETEDPEPNYAGEPYVAIKAYTAVEGDEVSLLEGEAVEVIHKLLDGWWVIRKDDVTGYFPSMYLQKSGQDVSQAQRQIKRGAPPRRSSIRNAHSIHQRSRKRLSQDAYRRNSVRFLQQRRRQARPGPQSPGSPLEEERQTQRSKPQPAVPPRPSADLILNRCSESTKRKLASAV
notes: Human by the cell line; also called p47phox, 45K

The target in test [1] is unlabeled p47phox (in vitro titration). The experiment in a line: fluorescence titration of BODIPY FL-labeled MPT63 with unlabeled p47phox, curve fitting, 25 C.
The target in test [2] is unlabeled TBK1 (in vitro titration). The experiment in a line: fluorescence titration of BODIPY FL-labeled MPT63 with unlabeled TBK1, curve fitting, 25 C.
Sequence of unlabeled TBK1 (in vitro titration) (Q9UHD2 whole entry): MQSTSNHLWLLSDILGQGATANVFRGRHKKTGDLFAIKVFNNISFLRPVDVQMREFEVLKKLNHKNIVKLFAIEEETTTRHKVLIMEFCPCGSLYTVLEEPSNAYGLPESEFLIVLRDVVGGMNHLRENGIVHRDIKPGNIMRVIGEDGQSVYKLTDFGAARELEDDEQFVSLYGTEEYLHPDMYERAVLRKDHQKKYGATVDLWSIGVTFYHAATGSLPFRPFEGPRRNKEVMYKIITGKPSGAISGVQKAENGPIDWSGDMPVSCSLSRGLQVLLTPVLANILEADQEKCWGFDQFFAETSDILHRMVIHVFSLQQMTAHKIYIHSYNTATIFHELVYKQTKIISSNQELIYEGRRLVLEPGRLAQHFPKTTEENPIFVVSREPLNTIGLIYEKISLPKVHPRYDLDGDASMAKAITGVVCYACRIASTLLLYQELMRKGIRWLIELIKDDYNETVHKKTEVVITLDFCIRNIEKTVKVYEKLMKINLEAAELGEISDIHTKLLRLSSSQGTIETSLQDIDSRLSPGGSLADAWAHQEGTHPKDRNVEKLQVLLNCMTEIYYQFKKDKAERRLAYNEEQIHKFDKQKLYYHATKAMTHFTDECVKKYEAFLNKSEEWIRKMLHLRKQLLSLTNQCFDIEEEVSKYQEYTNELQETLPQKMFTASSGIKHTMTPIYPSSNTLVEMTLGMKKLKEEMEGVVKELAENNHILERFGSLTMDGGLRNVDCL
Test [3] shares this target. The experiment in a line: fluorescence titration of BODIPY FL-labeled MPT64 with unlabeled TBK1, curve fitting, 25 C.
The target in test [4] is unlabeled HK2 (in vitro titration). In words: fluorescence titration of BODIPY FL-labeled MPT64 with unlabeled HK2, curve fitting, 25 C.
Test [5] addresses B2. In words: co-IP in THP-1 cells treated with p47 peptide.
Test [6] deals with T1, p67phox, endogenous in THP-1 cells (human, UniProt P19878 1-526).
T1 sequence: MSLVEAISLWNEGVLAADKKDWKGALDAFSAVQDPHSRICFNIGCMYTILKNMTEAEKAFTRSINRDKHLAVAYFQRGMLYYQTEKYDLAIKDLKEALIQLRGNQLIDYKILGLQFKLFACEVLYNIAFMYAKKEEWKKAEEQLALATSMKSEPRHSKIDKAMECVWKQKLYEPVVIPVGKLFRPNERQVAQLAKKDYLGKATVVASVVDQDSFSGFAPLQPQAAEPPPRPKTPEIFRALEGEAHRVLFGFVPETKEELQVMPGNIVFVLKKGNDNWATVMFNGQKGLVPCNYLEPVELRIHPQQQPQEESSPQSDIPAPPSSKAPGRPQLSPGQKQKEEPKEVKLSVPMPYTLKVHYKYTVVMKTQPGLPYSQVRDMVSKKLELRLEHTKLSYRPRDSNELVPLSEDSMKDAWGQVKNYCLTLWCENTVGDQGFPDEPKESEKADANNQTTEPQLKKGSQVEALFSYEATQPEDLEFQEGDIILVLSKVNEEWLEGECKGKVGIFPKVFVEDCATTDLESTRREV
In words: co-IP in THP-1 cells treated with p47 peptide.

Consider “recombinant MPT63 (rMPT63) (from UniProt P9WIP1 30-159)”, for which the Kd in test [1] amounted to 345 nM; in test [2], 178 nM.
Turning to “recombinant MPT64 (rMPT64) (from UniProt P9WIN9 24-228)”, the Kd in test [3] amounted to 193 nM; in test [4] it was 134 nM.

B1: p22phox, endogenous in THP-1 cells (other)
chain: GQIEWAMWANEQALASGLILITGGIVATAGRFTQWYFGAYSIVAGVFVCLLEYPRGKRKKGSTMERWGQKYMTAVVKLFGPFTRNYYVRAVLHLLLSVPAGFLLATILGTACLAIASGIYLLAAVRGEQWTPIEPKPRERPQIGGTIKQPPSNPPPRPPAEARKKPSEEEAAVAAGGPPGGPQVNPIPVTDEVV
Turning to B1, the binding result in test [5] is reported as “binds”.
As to B2, the binding result in test [6] is on record as “binds”.
